Results published in patent publication US20030157685A1 (GENERAL HOSPITAL CORPORATION A MASSACHUSETTS, published 2003).

Experiments:
[1] = molecular target: T1, LexA-C-myc bait (carboxy-terminal 176 amino acids of human C-myc) (human, UniProt P0A7C2 1-202; P01106 279-454); experiment: yeast two-hybrid
T1 construct: also called Lex-C-myc

[2] = molecular target: T2, LexA-N-myc bait (carboxyl-terminal 224 amino acids of human N-myc) (human, UniProt P0A7C2 1-202; P04198 241-464); experiment: yeast two-hybrid
T2 construct: also called PL-LexA-N-myc
T2 sequence (looked up): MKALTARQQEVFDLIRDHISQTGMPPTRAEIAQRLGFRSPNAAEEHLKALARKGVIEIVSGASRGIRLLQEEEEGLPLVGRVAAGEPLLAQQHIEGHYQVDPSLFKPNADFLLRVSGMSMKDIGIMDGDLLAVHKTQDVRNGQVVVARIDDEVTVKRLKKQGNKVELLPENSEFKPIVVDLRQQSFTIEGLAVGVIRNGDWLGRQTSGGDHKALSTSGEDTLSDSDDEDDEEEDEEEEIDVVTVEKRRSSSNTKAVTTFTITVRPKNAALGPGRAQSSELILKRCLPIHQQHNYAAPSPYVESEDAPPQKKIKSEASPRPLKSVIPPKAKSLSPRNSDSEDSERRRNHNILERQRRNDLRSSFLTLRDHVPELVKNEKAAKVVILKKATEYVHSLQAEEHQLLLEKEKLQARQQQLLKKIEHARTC

B1: full length Nmi fused in-frame with the transcriptional activator B42 in JG4-5 vector (other, not shown: small tags and cut ends)
chain: MEADKDDTQQILKEHSPDEFIKDEQNKGLIDEITKKNIQLKKEIQKLETELQEATKEFQIKEDIPETKMKFLSVETPENDSQLSNISCSFQVSSKVPYEIQKGQALITFEKEEVAQNVVSMSKHHVQIKDVNLEVTAKPVPLNSGVRFQVYVEVSKMKINVTEIPDTLREDQMRDKLELSFSKFRNGGGEVDRVDYDRQSGSAVITFVEIGVADKILKKKEYPLYINQTCHRVTVSPYTEIHLKKYQIFSGTSKRTVLLTGMEGIQMDEEIVEDLINIHFQRAKNGGGEVDVVKCSLGQPHIAYFEE
notes: Yeast two-hybrid prey; the 307 amino acid protein is meant
Question: Which results are given for B1?
Answer: binding result [1]: binds; binding result [2]: binds
